Data taken from paper doi:10.1101/2021.08.10.455837.

Target: human HBEGF (human) (UniProt Q99075)
Chain of UniProt Q99075 (Q99075 20-208): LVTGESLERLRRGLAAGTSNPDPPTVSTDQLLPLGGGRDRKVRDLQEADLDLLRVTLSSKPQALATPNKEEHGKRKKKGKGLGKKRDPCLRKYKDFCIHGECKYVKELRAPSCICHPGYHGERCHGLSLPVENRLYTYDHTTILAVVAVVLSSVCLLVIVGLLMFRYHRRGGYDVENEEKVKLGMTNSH

Substance: Diphtheria toxin (from UniProt P00588 33-567) (natural protein)
- EC50 of toxicity (dose titration) on WT ARN8 cells (basal levels of HBEGF): 0.026 nM
